Laboratory results reported in patent publication US20150218277A1 (REGENTS OF THE UNIVERSITY OF MICHIGAN, published 2015).
Ends that are not written are not given here.

B1: Peptide 1 DEAYVMA (peptide)
peptide: DEAYVMA
B2: Peptide 2 SVDNPHVC (Disruptin) (peptide)
peptide: SVDNPHVC
modifications: not fully specified
B3: Peptide 3 RLLGIC (peptide)
peptide: RLLGIC
B4: Peptide 4 GVGSPYVS (peptide)
peptide: GVGSPYVS
B5: Peptide 6 DEAYVMAGVGSPYVSRLLGIC (peptide)
peptide: DEAYVMAGVGSPYVSRLLGIC
B6: Peptide 7 SVGNPHVC (peptide)
peptide: SVGNPHVC
B7: Peptide 8 NHVPSDVC (scrambled peptide) (peptide)
peptide: NHVPSDVC
modifications: not fully specified

Each binder was assayed against Heat Shock Protein 90 (HSP90), endogenous, in human cell lines (human, UniProt P07900 2-732) (assay: cell-based or functional assay).

First: B1
Second: B2
The “clonogenic survival of UMSCC1 cells (Survival Fraction), peptide delivered with Chariot” value of the first is higher: 0.93 survival fraction for the first, 0.77 survival fraction for the second.

Compared with B3, B4 is higher in “clonogenic survival of UMSCC1 cells (Survival Fraction), peptide delivered with Chariot” value: 0.85 survival fraction for the first, 1 survival fraction for the second.

Compared with B5, B6 is lower in “clonogenic survival of UMSCC1 cells (Survival Fraction), peptide delivered with Chariot” value: 1 survival fraction for the first, 0.97 survival fraction for the second.

With B7 the “clonogenic survival of UMSCC1 cells (Survival Fraction), peptide delivered with Chariot” value was 1 survival fraction.
